The DeepSol protein solubility set

assay: soluble on expression in E. coli; label from the status in PepcDB or PDB records

Row | Sequence | soluble on expression in E. coli
1 | MAPSLDSISHSFANGVASAKQAVNGASTNLAVAGSHLPTTQVTQVDIVEKMLAAPTDSTLELDGYSLNLGDVVSAARKGRPVRVKDSDEIRSKIDKSVEFLRSQLSMSVYGVTTGFGGSADTRTEDAISLQKALLEHQLCGVLPSSFDSFRLGRGLENSLPLEVVRGAMTIRVNSLTRGHSAVRLVVLEALTNFLNHGITPIVPLRGTISASGDLSPLSYIAAAISGHPDSKVHVVHEGKEKILYAREAMALFNLEPVVLGPKEGLGLVNGTAVSASMATLALHDAHMLSLLSQSLTAMTVEAMVGHAGSFHPFLHDVTRPHPTQIEVAGNIRKLLEGSRFAVHHEEEVKVKDDEGILRQDRYPLRTSPQWLGPLVSDLIHAHAVLTIEAGQSTTDNPLIDVENKTSHHGGNFQAAAVANTMEKTRLGLAQIGKLNFTQLTEMLNAGMNRGLPSCLAAEDPSLSYHCKGLDIAAAAYTSELGHLANPVTTHVQPAEMANQAVNSLALISARRTTESNDVLSLLLATHLYCVLQAIDLRAIEFEFKKQFGPAIVSLIDQHFGSAMTGSNLRDELVEKVNKTLAKRLEQTNSYDLVPRWHDAFSFAAGTVVEVLSSTSLSLAAVNAWKVAAAESAISLTRQVRETFWSAASTSSPALSYLSPRTQILYAFVREELGVKARRGDVFLGKQEVTIGSNVSKIYEAIKSGRINNVLLKMLA | soluble
2 | MDRRQKRLIFSTITSKMNLSEEVDLEDYVARPDKISGADINSICQESGMLAVRENRYIVLAKDFEKAYKTVIKKDEQEHEFYK | soluble
3 | MSSGFGGEKEEEITQKTAKSSEKAIVPKYNISDSYYKMVLPFKAGKARGLTTEQLNTRLDIDEFETGLMRLAQDSFSTDDYLFQEGQYLDEDTVLSWLARKKTGSDLKKAEKEDKNFKNEGLNPALPSSGSTEEKNESSPIYLASMLEHDYLVRKDKNSIQLGGVMIGLALNSVYYYREKTGDPQKEVEIKDSTLRQQGEKIAQEVINRLRKKDNLKNVPITVALYKQASKTSIVPGNFIAKTEVKAGSTDISNWDDINEKYVFYPADTTTAEKYPDDTEVFKRFKNSIEEYFPNYTGVVGTALYENDEMKKMKIDIPMQFYGKSEVVAFTQFLTGEVMDYYSKSSVDVEVNITSSDGQEAVIIRNAGDKEPTVHIYDLEHHHHHH | soluble
4 | SLPGKLALKLDPTILKHLAKNYDVIVITGTNGKTLTTALTVKVLREQYPDILTNPSGSNMKQGIVTTFLRAPKAHQKPLAVLEVDEANVIMVTKYITPKAFVFTNIFRDQMDRYGEIYTTYQKILDGVALAPEATIIANGDLPLFNAKQLPNPILYYGFDYQPDHDQQAPANTDGLLCPRCQHILRYHSRTYSNMGKYYCPHCGFERPQLTYKLNALTAMTPTSSDFEINGQAMHLNIGGQYNIYNALAAYAVGRFMDVTPAKIAHALSDNDEQV | not soluble
5 | MGSDKIHHHHHHMEKSSIYGLTWTNLTEWLEAHGQKKFRATQVWDWLYRKRVKTFEEMSNVPKETIELLTANFVMNTLEEQVVQESTDGTTKYLFKLSDGNLIETVMMKQEYGLSVCVTTQVGCNIGCTFCASGLLKKSRDLTAGEIVEQIMNVQHYLDGRNLEERVSHVVVMGIGEPFDNYDNVMDFLRVINHDKGLAIGARHITVSTSGLAPRIIDFANEDFQVNLAISLHAPNNELRTSIMRINKTYSIEKLMEAIHYYVNKTNRRITFEYIMLKGVNDHKKEALELAALLGEHRHLAYVNLIPYNPVDEHIDYERSTKEDVLAFYDTLKKNGINCVIRREHGTDIDAACGQLRSKQIKRVGVRERMKQKQAAAEE | not soluble
6 | SFDNSLSRELSRKQNENQMFVYSFEASASMLSSDTEYIQKNDIEKIIDSVKRSMGESQIGITIVNQKEKAIYTDSKIGKNIKIKDLKDNNFGYLIFKNNGSYYLETMSKMTIESGTYYISIVSSINEVYNDINEMMKN | not soluble
7 | MGSDKIHHHHHHMITFDEIIPGVTDILKEYSKELDQMAPILVNRDLNGRVRLIIKDDIRGNSHAEGVLDKISKALHQRLGAHGFPPERIVLFETDMQTVLAETPCFPLDGVEGVSVADRLVTESNWSKGIAPTETVPRIVFFSIKGGVGRSTSLAAAAWALAESGKRVLVLDMDLESPGLSSSLLPQDRRPKFGITDWLVEDLVDNGDRVISDMIATSPLSRNGDIYVVPAHGADPGEYIAKLGRVWMPKVNAEGRRILWVQRLQGLLNALEDRLKPDVILLDSRAGIDEVASACVTDLGASSVLLFALDGDQTWSGYRILFRHWRQSGVVRDIRERLQVVGAMIPDVDAAGYYADLLESSWNAFSEELYDEIPAGLSANGEDYWNFDQADEAAPHYPWSIRWNRGFSAMRSLHNRFDTVDAEQVNYVFGDFLTGLAASVQNEEDER | not soluble
